Source: patent US20080050387A1, “Non-Androgen Dependent Roles for Androgen Receptor and Non-Androgen Related Inhibitors of Androgen Receptor” (priority 2003, published 2008)
Changes are numbered by the printed parent chain.

B1: ARA67281-550: truncated ARA67 fragment, residues 281-550 (protein)
chain: GSKHPKYSDTLLDYGFYLLNVDNICQSVAIYQAALDIRQSVFGGKNIHVATAHEDLAYSSYVHQYSSGKFDNALFHAERAIGIITHILPEDHLLLASSKRVKALILEEIAIDCHNKETEQRLLQEAHDLHLSSLQLAKKAFGEFNVQTAKHYGNLGRLYQSMRKFKEAEEMHIKAIQIKEQLLGQEDYEVALSVGHLASLYNYDMNQYENAEKLYLRSIAIGKKLFGEGYSGLEYDYRGLIKLYNSIGNYEKVFEYHNVLSNWNRLRDRQ
B2: f-hRad9: fragment aa 327-391 of hRad9 containing the FXXLF motif (protein, UniProt Q99638 327-391, looked up, fragment)
chain: LSPGPQPPKSPGPHSEEEDEAEPSTVPGTPPPKKFRSLFFGSILAPVRSPQGPSPVLAEDSEGEG
B3: ARA671-280: N-terminal region of ARA67, residues 1-280 (protein)
chain: MAAVELEWIPETLYNTAISAVVDNYIRSRRDIRSLPENIQFDVYYKLYQQGRLCQLGSEFCELEVFAKVLRALDKRHLLHHCFQALMDHGVKVASVLAYSFSRRCSYIAESDAAVKEKAIQVGFVLGGFLSDAGWYSDAEKVFLSCLQLCTLHDEMLHWFRAVECCVRLLHVRNGNCKYHLGEETFKLAQTYMDKLSKHGQQANKAALYGELCALLFAKSHYDEAYKWCIEAMKEITAGLPVKVVVDVLRQASKACVVKREFKKAEQLIKHAVYLARDHF
B4: ARA67281-585: C-terminal region of ARA67, residues 281-585 (protein)
chain: GSKHPKYSDTLLDYGFYLLNVDNICQSVAIYQAALDIRQSVFGGKNIHVATAHEDLAYSSYVHQYSSGKFDNALFHAERAIGIITHILPEDHLLLASSKRVKALILEEIAIDCHNKETEQRLLQEAHDLHLSSLQLAKKAFGEFNVQTAKHYGNLGRLYQSMRKFKEAEEMHIKAIQIKEQLLGQEDYEVALSVGHLASLYNYDMNQYENAEKLYLRSIAIGKKLFGEGYSGLEYDYRGLIKLYNSIGNYEKVFEYHNVLSNWNRLRDRQYSVTDALEDVSTSPQSTEEVVQSFLISQNVEGPSC
B5: ARA678-140: truncated ARA67 fragment, residues 8-140 (protein)
chain: WIPETLYNTAISAVVDNYIRSRRDIRSLPENIQFDVYYKLYQQGRLCQLGSEFCELEVFAKVLRALDKRHLLHHCFQALMDHGVKVASVLAYSFSRRCSYIAESDAAVKEKAIQVGFVLGGFLSDAGWYSDAE
B6: ARA671-550: ARA67 lacking the PEST sequence (protein, UniProt Q92624 1-550, looked up, fragment)
chain: MAAVELEWIPETLYNTAISAVVDNYIRSRRDIRSLPENIQFDVYYKLYQQGRLCQLGSEFCELEVFAKVLRALDKRHLLHHCFQALMDHGVKVASVLAYSFSRRCSYIAESDAAVKEKAIQVGFVLGGFLSDAGWYSDAEKVFLSCLQLCTLHDEMLHWFRAVECCVRLLHVRNGNCKYHLGEETFKLAQTYMDKLSKHGQQANKAALYGELCALLFAKSHYDEAYKWCIEAMKEITAGLPVKVVVDVLRQASKACVVKREFKKAEQLIKHAVYLARDHFGSKHPKYSDTLLDYGFYLLNVDNICQSVAIYQAALDIRQSVFGGKNIHVATAHEDLAYSSYVHQYSSGKFDNALFHAERAIGIITHILPEDHLLLASSKRVKALILEEIAIDCHNKETEQRLLQEAHDLHLSSLQLAKKAFGEFNVQTAKHYGNLGRLYQSMRKFKEAEEMHIKAIQIKEQLLGQEDYEVALSVGHLASLYNYDMNQYENAEKLYLRSIAIGKKLFGEGYSGLEYDYRGLIKLYNSIGNYEKVFEYHNVLSNWNRLRDRQ
B7: GST-ARA67170-338: GST-fused ARA67 fragment 170-338, which contains the LXXLL motif (protein)
chain: LHVRNGNCKYHLGEETFKLAQTYMDKLSKHGQQANKAALYGELCALLFAKSHYDEAYKWCIEAMKEITAGLPVKVVVDVLRQASKACVVKREFKKAEQLIKHAVYLARDHFGSKHPKYSDTLLDYGFYLLNVDNICQSVAIYQAALDIRQSVFGGKNIHVATAHEDLAY
B8: AXXLF: hRad9 mutant, F361 converted to Ala (protein, UniProt Q99638 1-391, looked up, variant F361A)
Cell cycle checkpoint control …: MKCLVTGGNVKVLGKAVHSLSRIGDELYLEPLEDGLSLRTVNSSRSAYACFLFAPLFFQQYQAATPGQDLLRCKILMKSFLSVFRSLAMLEKTVEKCCISLNGRSSRLVVQLHCKFGVRKTHNLSFQDCESLQAVFDPASCPHMLRAPARVLGEAVLPFSPALAEVTLGIGRGRRVILRSYHEEEADSTAKAMVTEMCLGEEDFQQLQAQEGVAITFCLKEFRGLLSFAESANLNLSIHFDAPGRPAIFTIKDSLLDGHFVLATLSDTDSHSQDLGSPERHQPVPQLQAHSTPHPDDFANDDIDSYMIAMETTIGNEGSRVLPSISLSPGPQPPKSPGPHSEEEDEAEPSTVPGTPPPKKARSLFFGSILAPVRSPQGPSPVLAEDSEGEG
B9: FXXAA: hRad9 mutant, L364 and F365 converted to Ala (protein, UniProt Q99638 1-391, looked up, variant L364A F365A)
Cell cycle checkpoint control …: B8 Cell cycle checkpoint control … with A361F, L364A, F365A

How the values were obtained:
AR [1] = experiment: AR transactivation reporter gene assay in H1299 cells with ARA67; format: cell-based, human; conditions: H1299 cells, 600 ng construct, MMTV-luc
Method: H1299 and COS-1 cells were maintained in Dulbecco's modified Eagle's medium (DMEM) (Life Technologies, Inc.) supplemented with 10% heat inactivated fetal bovine serum (FBS). LNCap cells were maintained in RPMI 1640 supplemented with […]. All media contain 100 units penicillin, 100 μg/ml streptomycin and 2 mM L-glutamine. Cells were seeded to a density of 50-60% confluency for transfection. In transfections where H1299 and COS-1 cells were used, the calcium phosphate precipitation method was used as described (Pan H J, et al. 1999. Endocrine 11:321-327) unless otherwise noted. […] In other reporter gene assays, where ligand treatment was required, cell culture media were changed to DMEM containing 10% charcoal-dextran-stripped FBS (CD-FBS) 2 h before transfection. After 16-18 h transfection, cells were treated with medium containing either vehicle or ligands for another 20-24 h and then cells were harvested. With LNCap cells transfection, the cells were treated with fresh RPMI 1640 containing 10% CD-FBS before transfection with SuperFect performed according to the manufacturer's protocol (Qiagen). After transfection, cells were allowed to recover in fresh RPMI 1640 containing 10% CD-FBS for 8-12 h, and then treated with either vehicle or ligands for another 20-24 h before harvesting. Each experiment was repeated at least three times.
Target sequence in this assay (P10275 with tags, fused parts or gaps DEL79-80/DUP473-473): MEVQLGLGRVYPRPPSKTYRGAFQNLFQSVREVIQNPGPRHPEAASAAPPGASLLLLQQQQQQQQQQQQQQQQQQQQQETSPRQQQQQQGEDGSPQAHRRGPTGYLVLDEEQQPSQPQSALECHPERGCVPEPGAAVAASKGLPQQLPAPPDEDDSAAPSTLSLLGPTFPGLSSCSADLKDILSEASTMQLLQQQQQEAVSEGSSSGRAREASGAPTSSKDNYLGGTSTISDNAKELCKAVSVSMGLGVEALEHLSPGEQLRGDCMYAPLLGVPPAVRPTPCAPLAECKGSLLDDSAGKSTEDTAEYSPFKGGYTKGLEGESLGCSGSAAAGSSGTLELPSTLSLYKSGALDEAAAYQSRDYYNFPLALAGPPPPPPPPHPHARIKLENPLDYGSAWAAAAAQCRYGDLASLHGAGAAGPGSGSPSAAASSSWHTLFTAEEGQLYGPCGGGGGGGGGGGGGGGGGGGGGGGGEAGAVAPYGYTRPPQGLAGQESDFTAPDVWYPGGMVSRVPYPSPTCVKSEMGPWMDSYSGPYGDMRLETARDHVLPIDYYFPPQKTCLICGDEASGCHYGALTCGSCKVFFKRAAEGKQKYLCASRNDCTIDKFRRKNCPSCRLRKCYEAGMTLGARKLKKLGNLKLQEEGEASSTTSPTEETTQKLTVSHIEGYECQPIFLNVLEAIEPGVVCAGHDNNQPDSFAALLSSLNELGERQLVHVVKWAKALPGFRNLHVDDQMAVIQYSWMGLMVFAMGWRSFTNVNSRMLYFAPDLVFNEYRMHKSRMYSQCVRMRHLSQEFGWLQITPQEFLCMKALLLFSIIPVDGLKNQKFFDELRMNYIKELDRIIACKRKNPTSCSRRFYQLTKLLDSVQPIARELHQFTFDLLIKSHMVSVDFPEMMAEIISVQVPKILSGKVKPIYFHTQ

AR (ARN, ARDBD, ARLBD) = experiment: GST pull-down assay ARA67 / AR; format: binding, human
Method: GST-ARN, GST-ARA67 fusion proteins, and GST control protein were expressed in BL21 (DE3)pLysS bacteria strain (Stratagene) and purified with glutathione-Sepharose beads as instructed by the manufacturer (Amersham Pharmacia). In vitro [^35S]methionine-labeled AR, ARN, AR DBD, AR LBD and ARA67 proteins were generated using TNT-coupled Reticulocyte Lysate Systems (Promega). For in vitro interaction, mixtures of glutathione beads bound GST fusion proteins and 5 μl [^35S]methionine-labeled input proteins in 100 μl interaction buffer (20 mM Tris/pH8.0, 60 mM NaCl, 6 mM MgCl2, 1 mM EDTA, 0.05% Nonidet P-40, 1 mM DTT, 8% glycerol, 1 mM PMSF) were incubated in the presence or absence of 10 μM dihydrotestosterone (DHT) on a rotating disk at 4° C. for 2 h. After washing with NETN buffer (20 mM Tris/pH8.0, 100 mM NaCl, 6 mM MgCl2, 1 mM EDTA, 0.5% Nonidet P-40, 1 mM DTT, 8% glycerol, 1 mM PMSF) four times, the bound proteins were separated on 8-13% SDS-PAGE and visualized by autoradiography.

AR [2] = experiment: Mammalian two-hybrid assay hRad9 / AR in PC-3 cells; format: cell-based, human; conditions: 10 nM DHT; for interaction between AR and full-length hRad9 / interaction between AR and the fragment of hRad9 (aa 327-391): FXXLF motif mutants
Method: (§1) PC-3, CWR22R, and LNCaP cell lines were maintained in […] supplemented with 10% fetal calf serum (FCS). Transient transfection for luciferase assays was carried out in 24-well plates (5×10^4 cells per well) using SuperFect as described previously (Lin, H. K., et al., Embo J 21:4037-48 (2002)). DNA mixtures in transfection assay were indicated in each figure. The total amount of transfected DNA was kept constant (1 μg) by adding the corresponding amounts of empty expression plasmids. After transfection, cells were cultured in […] supplemented with 5% charcoal-stripped FCS in the presence or absence of 10 nM dihydrotestosterone (DHT) for 18 h. Luciferase assays were performed as previously described (Yang, L., et al., J Biol Chem 278:16820-7 (2003)). In Western blotting assays, CWR22R or LNCaP cells were transfected by electroporation using 5×10^6 cells/0.4 ml of RPMI medium containing 2% FCS plus 9 μg of the indicated plasmids. 1 μg of EGFP expression vector was used for transfection efficiency. Electroporation was performed at 250 V and 950 μF using Gene Pulser II (Bio-Rad)
Target sequence in this assay (P10275 with tags, fused parts or gaps DEL79-80/DUP473-473): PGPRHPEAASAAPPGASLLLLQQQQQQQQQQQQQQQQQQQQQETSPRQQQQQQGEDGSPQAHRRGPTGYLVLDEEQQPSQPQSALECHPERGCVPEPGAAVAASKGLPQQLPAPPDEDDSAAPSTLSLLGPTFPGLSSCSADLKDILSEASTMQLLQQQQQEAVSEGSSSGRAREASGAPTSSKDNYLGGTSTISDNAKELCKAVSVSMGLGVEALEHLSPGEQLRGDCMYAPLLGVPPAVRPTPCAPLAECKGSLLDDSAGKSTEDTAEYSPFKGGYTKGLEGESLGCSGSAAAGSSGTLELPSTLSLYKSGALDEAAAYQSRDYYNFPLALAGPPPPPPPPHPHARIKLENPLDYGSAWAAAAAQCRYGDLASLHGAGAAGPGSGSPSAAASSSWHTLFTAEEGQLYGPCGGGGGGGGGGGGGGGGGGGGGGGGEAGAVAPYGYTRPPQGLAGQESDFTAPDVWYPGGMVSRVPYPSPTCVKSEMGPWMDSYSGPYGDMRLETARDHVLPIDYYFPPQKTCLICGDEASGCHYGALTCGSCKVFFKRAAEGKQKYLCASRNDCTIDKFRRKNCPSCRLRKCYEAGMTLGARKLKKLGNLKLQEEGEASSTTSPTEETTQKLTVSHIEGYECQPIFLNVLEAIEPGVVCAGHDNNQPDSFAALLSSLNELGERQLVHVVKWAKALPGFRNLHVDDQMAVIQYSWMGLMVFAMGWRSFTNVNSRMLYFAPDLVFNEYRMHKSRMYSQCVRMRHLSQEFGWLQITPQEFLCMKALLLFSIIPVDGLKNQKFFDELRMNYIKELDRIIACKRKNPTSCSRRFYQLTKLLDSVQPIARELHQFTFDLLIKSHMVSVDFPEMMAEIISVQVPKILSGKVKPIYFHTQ

AR (DBD-LBD, LBD, DBD) = experiment: Yeast two-hybrid / liquid β-gal assay hRad9 fragment / AR domains; format: cell-based, human
Source text: The DBD and LBD of AR cDNA was amplified and was cloned into the NdeI and BamHI site of pGBKT7 (Clontech). Yeast strain AH109 was transformed with the vector encoding GAL4 DBD-AR-DBD-LBD fusion and was mated with yeast strain Y187 pretransformed with the human ovary […] cDNA library (Clontech). The yeast clones were selected following the manufacturer's instruction. The positive clones were confirmed by clone lift assay and purified plasmids were retransformed into yeast strain AH109 with bait plasmids. The interaction specificity was further confirmed by liquid […] assay.

AR [3] = experiment: AR transactivation MMTV-LUC assay in PC-3 cells with hRad9; format: cell-based, human; conditions: MMTV-LUC, 10 nM DHT
Method: as §1

Molecule | suppression of AR transactivation by ARA67 fragments (AR [1]) | interaction with ARN (AR (ARN, ARDBD, ARLBD)) | further results
B1 | could also suppress AR transactivation | slightly stronger interaction | –
B2 | – | – | interaction with AR (AR [2]): androgen-dependent interactions were detected; interaction with AR LBD (AR (DBD-LBD, LBD, DBD); AH109 yeast cells, presence of androgen): interacted; liquid β-gal assay induction with the AR-DBD-LBD (AR (DBD-LBD, LBD, DBD); yeast, presence of DHT): strong induction
B3 | better suppressor than ARA67281-550 and ARA67281-585 | relatively weak | –
B4 | could also suppress AR transactivation | relatively weak | –
B5 | – | slightly stronger interaction | –
B6 | didn't show a stronger suppression effect than full length ARA67 | – | –
B7 | – | very weak interaction | interaction with AR LBD (AR (ARN, ARDBD, ARLBD)): no interaction
B8 | – | – | interaction between AR and full-length hRad9 (AR [2]): reduced; interaction between AR and the fragment of hRad9 (aa 327-391) (AR [2]): decreased dramatically
B9 | – | – | transcriptional activity of AR (AR [3]): only marginal effect; interaction between AR and full-length hRad9 (AR [2]): reduced; interaction between AR and the fragment of hRad9 (aa 327-391) (AR [2]): decreased dramatically
